Test results as given in article PMC7599583 (Viruses, 2020).
Several values for one entry are separate records, joined by “and”; a condition that tells them apart may be missing. Equal values may be shown once.

Legend:
[1] = biological target: T1, Human adenovirus serotype 7 fiber knob, His-tagged (His-HAd7K), wild type (human adenovirus serotype 7 (HAdV7), …); experiment: BLI
T1 chain: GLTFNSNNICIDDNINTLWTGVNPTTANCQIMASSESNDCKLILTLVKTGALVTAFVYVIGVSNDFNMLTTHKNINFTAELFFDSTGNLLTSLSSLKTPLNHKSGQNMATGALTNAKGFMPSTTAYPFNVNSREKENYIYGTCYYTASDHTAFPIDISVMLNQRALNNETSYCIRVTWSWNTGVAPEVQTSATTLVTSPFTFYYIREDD

[2] = biological target: T1, Human adenovirus serotype 7 fiber knob, …; experiment: BLI
[3] = biological target: T2, Human adenovirus serotype 7 fiber knob, His-tagged (His-HAd7K), wild type (human adenovirus serotype 7 (HAdV7), …); experiment: cryo-EM structure; conditions: both partners purified
T2 chain: T1 chain

[4] = biological target: T3, Human adenovirus serotype 7 fiber knob, His-tagged (His-HAd7K), wild type (human adenovirus serotype 7 (HAdV7), …, N-glycosylated (sugars almost 15% of the total mass by mass spectrometry) / Wild-type trimeric knob; N-terminal His tag and GSHM omitted. The printed limits D87-P273 do not fit the paper's own residue); experiment: cryo-EM structure; conditions: both partners purified
T3 chain: T1 chain

B1: Desmoglein-2 (DSG2), non His-tagged, Leinco Technologies (receptor)
chain: AWITAPVALREGEDLSKKNPIAKIHSDLAEERGLKITYKYTGKGITEPPFGIFVFNKDTGELNVTSILDREETPFFLLTGYALDARGNNVEKPLELRIKVLDINDNEPVFTQDVFVGSVEELSAAHTLVMKINATDADEPNTLNSKISYRIVSLEPAYPPVFYLNKDTGEIYTTSVTLDREEHSSYTLTVEARDGNGEVTDKPVKQAQVQIRILDVNDNIPVVENKVLEGMVEENQVNVEVTRIKVFDADEIGSDNWLANFTFASGNEGGYFHIETDAQTNEGIVTLIKEVDYEEMKNLDFSVIVANKAAFHKSIRSKYKPTPIPIKVKVKNVKEGIHFKSSVISIYVSESMDRSSKGQIIGNFQAFDEDTGLPAHARYVKLEDRDNWISVDSVTSEIKLAKLPDFESRYVQNGTYTVKIVAISEDYPRKTITGTVLINVEDINDNCPTLIEPVQTICHDAEYVNVTAEDLDGHPNSGPFSFSVIDKPPGMAEKWKIARQESTSVLLQQSEKKLGRSEIQFLISDNQGFSCPEKQVLTLTVCECLHGSGCREAQHDSYVG
modifications: Wild-type trimeric knob; N-terminal His tag and GSHM omitted. The printed limits D87-P273 do not fit the paper's own residue numbering (V300 and P302 are present in the knob), so the deposited knob entity (same as 3EXW) with the last shaft repeat is used. Entity position = fiber number - 112 (D265=153, F269=157, N192=80), an offset inferred by assuming a 325-residue fiber and comparing with HAd3K.
Question: B1 was tested. Which Kd [1] did it give?
Answer: The Kd was 4.04 nM.

Question: And the koff [2]?
Answer: The koff was 0.000112 s⁻¹.

B2: Human adenovirus serotype 7 fiber knob, His-tagged (His-HAd7K), wild type (domain or fragment)
chain: T1 chain
modifications: Wild-type trimeric knob; N-terminal His tag and GSHM omitted. The printed limits D87-P273 do not fit the paper's own residue numbering (V300 and P302 are present in the knob), so the deposited knob …
Question: How did the “stoichiometry N” value [3] turn out when B2 was run?
Answer: The value was 3.

B3: EC2-EC3 domains of desmoglein-2 (EC23 module), glycosylated (domain or fragment, UniProt Q14126 149-386, looked up)
chain: VLDINDNEPVFTQDVFVGSVEELSAAHTLVMKINATDADEPNTLNSKISYRIVSLEPAYPPVFYLNKDTGEIYTTSVTLDREEHSSYTLTVEARDGNGEVTDKPVKQAQVQIRILDVNDNIPVVENKVLEGMVEENQVNVEVTRIKVFDADEIGSDNWLANFTFASGNEGGYFHIETDAQTNEGIVTLIKEVDYEEMKNLDFSVIVANKAAFHKSIRSKYKPTPIPIKVKVKNVKEGI
notes: also called EC2-EC3 module; EC23 module of DSG2
Question: Which “stoichiometry N” value [4] does the source give for B3 here?
Answer: The value was 2 EC23 modules per HAd7K trimer and 3 EC23 modules per HAd7K trimer.
